Laboratory results taken from article doi:10.1101/2021.04.13.439745.

Biological target: T1, Pil1-mCherry-Atg38(161-190) (S. pombe), O94427
T1 chain: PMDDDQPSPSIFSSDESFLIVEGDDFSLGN
Settings: remark: other sources report otherwise

B1: GFP-Atg8^(P52A R67A), O94272 1-116 (natural protein)
chain: MRSQFKDDFSFEKRKTESQRIREKYPDRIPVICEKVDKSDIAAIDKKKYLVASDLTVGQFVYVIRKAIKLSPEKAIFIFIDEILPPTAALMSTIYEEHKSEDGFLYITYSGENTFG
- PCC (Pearson correlation coefficient of colocalisation): 0.42
